Data on 4 molecules can be found in patent US20220380471A1 (US Dept. of Health and Human Services, published 2022).

Assay [1] concerns the target T1, B7H3 (CD276) on MC38-CD276+ cells.
T1 construct: whole, on cells; MC38-CD276KO cells served as the negative control; also called MC38-B7H3+
T1 sequence (Q5ZPR3 1-534, species assumed, looked up): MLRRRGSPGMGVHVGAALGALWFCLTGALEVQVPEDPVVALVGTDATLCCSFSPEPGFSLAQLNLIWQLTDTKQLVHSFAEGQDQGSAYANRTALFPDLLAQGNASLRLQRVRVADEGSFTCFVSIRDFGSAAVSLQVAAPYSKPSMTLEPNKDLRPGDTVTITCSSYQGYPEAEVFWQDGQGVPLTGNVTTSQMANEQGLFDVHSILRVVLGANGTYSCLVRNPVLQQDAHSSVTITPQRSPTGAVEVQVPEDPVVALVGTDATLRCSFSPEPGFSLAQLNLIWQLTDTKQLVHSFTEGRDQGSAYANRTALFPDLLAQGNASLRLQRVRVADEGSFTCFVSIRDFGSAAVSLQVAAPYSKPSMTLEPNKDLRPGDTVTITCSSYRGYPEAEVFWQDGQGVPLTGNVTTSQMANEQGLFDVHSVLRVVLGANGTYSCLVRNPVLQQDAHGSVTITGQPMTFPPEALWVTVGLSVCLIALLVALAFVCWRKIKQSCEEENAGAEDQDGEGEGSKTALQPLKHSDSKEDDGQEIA
Description: flow cytometry on MC38-CD276+ cells, VHH at 0.5 ug/ml. A general note: A flow cytometer gives signals particle by particle.

Assay [2] has the same target. The assay can be described thus: flow cytometry on MC38-CD276+ cells, VHH at 2 ug/ml.
Another assay has as its target T2, monkey B7H3-His (monkey).
T2 chain: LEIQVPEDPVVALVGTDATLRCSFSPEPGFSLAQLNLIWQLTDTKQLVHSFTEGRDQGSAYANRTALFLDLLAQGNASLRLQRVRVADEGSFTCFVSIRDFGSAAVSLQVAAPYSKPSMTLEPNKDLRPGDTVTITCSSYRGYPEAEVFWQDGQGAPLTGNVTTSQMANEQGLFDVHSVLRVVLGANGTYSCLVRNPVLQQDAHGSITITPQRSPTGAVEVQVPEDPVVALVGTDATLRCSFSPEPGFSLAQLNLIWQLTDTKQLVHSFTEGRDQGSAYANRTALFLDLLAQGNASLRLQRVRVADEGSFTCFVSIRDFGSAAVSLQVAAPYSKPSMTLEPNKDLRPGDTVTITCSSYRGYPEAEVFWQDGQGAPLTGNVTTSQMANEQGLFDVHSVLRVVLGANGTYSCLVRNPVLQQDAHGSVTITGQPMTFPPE
Description: ELISA; row Monkey; well 2 of 3. In short, it runs like this: (§1)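 Binding of the purified camel VHH nanobodies is given as the ELISA signal. The immobilised recombinant proteins included B7H3 fusion proteins and proteins other than B7H3. The nanobodies were isolated beforehand by phage panning on recombinant B7H3-Fc.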
For orientation: An ELISA detects its analyte on a solid surface through an enzyme-linked reagent.

The next assay deals with IgG control. Description: phage ELISA. Summed up: (§2)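 Camel VHH phage from libraries of eight individual camels went through 3 rounds of panning on recombinant B7H3-Fc protein. The recorded ELISA signal reflects binding of the selected phage to immobilised human or other-species B7H3, or to control proteins, in a phage ELISA.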
For assay [3], the target named is T3, recombinant human B7H3-Fc protein (human, UniProt Q5ZPR3 29-466, limits assumed).
T3 construct: 154 kDa non-reduced, 77 kDa reduced; also called hB7H3-Fc; not shown: Fc part
T3 sequence (looked up): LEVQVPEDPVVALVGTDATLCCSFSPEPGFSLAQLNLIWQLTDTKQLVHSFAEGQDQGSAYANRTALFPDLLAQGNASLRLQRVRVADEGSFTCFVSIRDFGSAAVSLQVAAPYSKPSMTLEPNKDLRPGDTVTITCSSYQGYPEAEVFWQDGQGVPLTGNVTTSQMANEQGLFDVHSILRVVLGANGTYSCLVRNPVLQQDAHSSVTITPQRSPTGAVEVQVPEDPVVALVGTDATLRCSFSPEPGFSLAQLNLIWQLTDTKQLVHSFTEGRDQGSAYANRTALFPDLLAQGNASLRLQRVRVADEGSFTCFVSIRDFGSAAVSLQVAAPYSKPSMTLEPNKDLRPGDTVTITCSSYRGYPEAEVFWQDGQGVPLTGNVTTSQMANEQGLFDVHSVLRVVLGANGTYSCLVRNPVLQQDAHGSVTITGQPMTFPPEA
Description: phage ELISA. Summed up:
as §2

A further assay addresses T4, human B7H3 (human, UniProt Q5ZPR3 29-466, limits assumed).
T4 construct: also called human B7H3 protein
T4 sequence (looked up): T3 sequence (looked up)
Description: ELISA; row Human; well 1 of 3. Summed up:
as §1

The target in another assay is HN3-Fc. Description: ELISA; row HN3-Fc; well 2 of 3. Summed up:
as §1

Assay [4] deals with PD-L1. Description: ELISA, purified VHH, cross-reaction.
PD-L1, sequence (Q9NZQ7 whole entry): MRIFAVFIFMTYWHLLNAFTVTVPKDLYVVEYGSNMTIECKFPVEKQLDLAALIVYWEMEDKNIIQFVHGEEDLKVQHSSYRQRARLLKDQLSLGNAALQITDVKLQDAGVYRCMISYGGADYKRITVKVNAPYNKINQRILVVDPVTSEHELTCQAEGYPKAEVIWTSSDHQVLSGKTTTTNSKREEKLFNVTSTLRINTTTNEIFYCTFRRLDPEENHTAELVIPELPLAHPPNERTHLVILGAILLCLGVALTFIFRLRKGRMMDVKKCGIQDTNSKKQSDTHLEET
Assay [5] deals with T1, B7H3 (CD276) on MC38-CD276+ cells. The assay can be described thus: flow cytometry on MC38-CD276+ cells, VHH at 10 ug/ml.
Assay [6] has as its target PD-L1. The assay can be described thus: ELISA; row PDL1-Fc; well 1 of 3. Summed up: as §1
Assay [7] deals with T1, B7H3 (CD276) on MC38-CD276+ cells. The assay can be described thus: flow cytometry on MC38-CD276+ cells, VHH at 50 ug/ml.
The next assay has as its target T5, Irrelevant antigen.
T5 construct: negative control
Description: ELISA; row Irrelevant antigen; well 1 of 3. Summed up: as §1

The target in assay [8] is T3, recombinant human B7H3-Fc protein. The assay can be described thus: ELISA; row B7H3-Fc; well 2 of 3. In short, it runs like this: as §1
Assay [9] has the same target. Description: ELISA; row B7H3-Fc; well 3 of 3. Summed up: as §1

B1: RWC4 (VHH)
VHH: EVQLVESGGGSVQAGGSLRLSCVASEDSTSAMCMGWFRQAPGKEREGVACINPTGEVTWYGDSVKGRFTISRDTVKKIVYLQMNSLKPEDTAMYYCAARVTYGGDWSTDTDYEYWGQGTQVTVSS
notes: Camel VHH; tag not described; also called camel antibody RWC4
In the case of B1, the Positive rates in assay [1] was found to be 14.4%; in assay [2], 84.7%; in [5], 98.3%; in assay [7] it was 98.8%. Besides, the “ELISA reading (name not given)” value in the assay with monkey B7H3-His stood at 1; in the assay with human B7H3, 0.976; in the assay with HN3-Fc, 0.046; with PD-L1 [6], 0.0625; in the assay with Irrelevant antigen, 0.0845; in assay [8] it was 1.99. In addition, in [9], the “ELISA reading (name not given)” value is 1.95. Moreover, the ELISA signal amounted to 0.0777 with IgG control, 2.66 in assay [3] and 0.043 with PD-L1 [4].

B2: RWG8 (VHH)
VHH: DVQLVESGGGLVQPGGSLRLSCAASGFTFSRYWMGWFRQAPGKGVEWVSTINSGGGSTYYADSVKGRFTISRDNAKNTLYLQLNNLKTEDTAMYYCAKEQWRTGSRGQGTQVTVSS
notes: Camel VHH; tag not described; also called camel antibody RWG8
As for B2, the Positive rates in assay [1] amounted to 0.1%; in [2], 0.31%; in assay [5], 4.68%; in assay [7], 26.5%. The “ELISA reading (name not given)” value with monkey B7H3-His came to 0.198; in the assay with human B7H3, 0.136; with HN3-Fc, 0.0514; in the assay with PD-L1 [6] it was 0.0653; in the assay with Irrelevant antigen, 0.104; in assay [8], 2.01. Also, the “ELISA reading (name not given)” value in assay [9] is 1.87. The ELISA signal in the assay with IgG control is 0.101; in [3] it was 2.52; in the assay with PD-L1 [4], 0.0715.

B3: RWB12 (VHH)
VHH: QVQLVESGGGSVQVGGSLRLSCAASGFTYNSYSVGWFRQAPGKEREGVAAINSGGSSTYYAASVKGRFTISRDNAKNTVYLQMNSLKPEDTAMYYCAARSPSPLTFQTRTLREDSYNYWGQGTQVTVSS
notes: Camel VHH; tag not described; also called camel antibody RWB12
In the case of B3, the Positive rates in assay [1] worked out at 0.23%; in [2] it was 0.18%; in assay [5], 4.16%; in [7], 12%. For the same molecule, the “ELISA reading (name not given)” value with monkey B7H3-His worked out at 0.201; with human B7H3, 0.181; with HN3-Fc it was 0.0616; with PD-L1 [6], 0.0639; with Irrelevant antigen, 0.08; in assay [8] it was 0.945. For the same molecule, the “ELISA reading (name not given)” value in assay [9] turned out to be 0.952. The ELISA signal is 0.164 with IgG control, 2.48 in assay [3] and 0.0454 in the assay with PD-L1 [4].

B4: RWG4 (VHH)
VHH: QVQLVQSGGGLVQPGGSLRLSCAASGFTFSVYWFYWVRQAPRQGLEWVSTIASNGSTYYSDSVKGRFTISRDNAKNTVYLQMNSLKPEDTAVYYCVSDPDYYSDYERAYKFWAQGTQVTVSS
notes: Camel VHH; tag not described; also called camel antibody RWG4
With B4, the Positive rates in assay [1] amounted to 1.25%; in [2], 23.4%; in [5], 85.8%; in [7] it was 91.5%. Further, the ELISA signal was 0.103 with IgG control, 2.13 in assay [3] and 0.0614 in the assay with PD-L1 [4].
